Columns and labels:
[1] = system: RirA N8D (Rhizobium leguminosarum strain 8401?); assay: SPR; conditions: SPR: 10 mM Hepes, 150 mM NaCl, 0.05% Tween, pH 7.4, 20 °C, 0-125 nM dimer; EMSA: 10 mM Hepes, 50 mM NaCl, 2.5% sucrose, 2.5 mM MgCl2, 1 mM DTT, pH 7.9, on ice …
[2] = system: RirA wild type (Rhizobium leguminosarum strain 8401); assay: SPR; conditions: SPR: 10 mM Hepes, 150 mM NaCl, 0.05% Tween, pH 7.4, 20 °C, 0-125 nM dimer; EMSA: 10 mM Hepes, 50 mM NaCl, 2.5% sucrose, 2.5 mM MgCl2, 1 mM DTT, pH 7.9, on ice …

Q: Which results are given for fhuA IRO box 30 bp SPR oligo?
A: Kd [1]: 10.3 nM; Kd [2]: 12.8 nM

From paper PMC10510648
